The source of these data is patent US8299028B2, “Chimeric peptide antagonist for GPCR135 or GPCR142” (Janssen Pharmaceutica NV, priority 2007, dated 2012).

Broadly, the EC50 is the concentration needed to bring the measured effect to its halfway point. Higher therefore signals a need for much substance.

The assay has as its target T1, human GPCR135 (Homo sapiens, UniProt Q9NSD7).
T1 sequence (Q9NSD7 1-469): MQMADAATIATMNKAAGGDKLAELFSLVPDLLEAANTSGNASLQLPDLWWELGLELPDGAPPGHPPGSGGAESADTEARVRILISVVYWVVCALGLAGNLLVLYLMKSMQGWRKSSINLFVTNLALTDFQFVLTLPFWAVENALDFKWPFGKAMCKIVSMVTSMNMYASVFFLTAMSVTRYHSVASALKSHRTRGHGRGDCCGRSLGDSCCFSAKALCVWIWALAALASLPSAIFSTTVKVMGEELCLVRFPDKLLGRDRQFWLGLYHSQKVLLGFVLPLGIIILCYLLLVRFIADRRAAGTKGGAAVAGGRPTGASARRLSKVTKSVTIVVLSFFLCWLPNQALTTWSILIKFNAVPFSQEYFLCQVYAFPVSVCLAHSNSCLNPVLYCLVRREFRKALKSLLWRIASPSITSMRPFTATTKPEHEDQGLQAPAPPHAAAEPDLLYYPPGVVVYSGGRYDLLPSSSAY
The experiment in a line: Agonist assay, inhibition of forskolin-induced β-gal expression in SK-N-MC/CRE-β-gal cells. On the set-up: expressed in transfected cells. The class given is cell-based. The conditions noted are these: human GPCR135 agonist response, mean ± SEM; NA = no agonist activity observed. How it is done: FIG. 1 provides a characterization of mutant relaxin-3 peptides as ligands for human GPCR135, GPCR142, and LGR7. The truncated peptides were tested for their GPCR135 and GPCR142 agonist activity using SK-N-MC/CRE-β-gal cells expressing either human GPCR135 (A) or GPCR142 (B). Agonists for GPCR135 or GPCR142 inhibit forskolin induced β-galactosidase (β-gal) expression. The LGR7 agonist activity of the truncated peptides was tested using SK-N-MC/CRE-β-gal cells expressing Gαs-linked human LGR7 (C). Human relaxin-3 was used as positive control in both cases. β-gal expression was measured by colorimetric assay using CPRG as the substrate and reading the absorbance at 570 nm.
All peptides were tested for their GPCR135, GPCR142, and LGR7 agonist activities in SK-N-MC/CRE cells expressing the relevant receptors as described by Liu et al., 2005b. […] An increase in cAMP concentration in these cells is associated with increased β-gal expression, which can be measured using Chlorophenol Red-β-D-Galactopyranoside (CRGP) as a substrate and reading the optical absorbance at 570 nm. […] The results were analyzed using GraphPad Prism 4.0 software. […] The agonism and antagonism of peptides for rat LGR7 was assayed using a cAMP luminescence assay. […] The cAMP in the cells was measured with a cAMP detection kit (DiscoveRx HitHunter, Cat. #90-0041) according to the manufacturer's protocol. […]

“R3(BΔ23-27)R: Relaxin-3 mutant: B-chain SEQ ID NO:15 (Gly23-Trp27 deleted plus C-terminal Arg), relaxin-3 A-chain SEQ ID NO:13” came in with an EC50 above 1 µM.
